# Source: patent US20260043807A1
# Read-outs that look alike come from different tables or passages of the source.
# How the values were obtained:
# Goat IgG [1] = assay: photo-crosslinking, 365 nm 2 hrs, SDS-PAGE (FIG. 6)
# Goat IgG [2] = assay: as above; remark: listed apart in the source
substance,measurement,setting,value
Protein L C* domain T46BPA (designed binder),conjugation efficiency,Goat IgG [1],50%
same,conjugation efficiency,Goat IgG [2],30 to 50%
